Consider one molecule from patent US20250367128A1, “BIODEGRADABLE LIPIDOIDS AND COMPOSITIONS AND METHODS OF USE THEREOF FOR LIVER TARGETED DELIVERY” (The Trustees of the University of Pennsylvania, priority 2022, published 2025).

This data set deals with hPCSK9 exon 7. The data set is described as follows: In vitro validation of SpCas9 gRNA (plasmid transfection of cell line). It is filed as cell-based, human. The following applies: data not shown. The source says:
In this study, we perform pre-clinical gene editing studies using a PCSK9-hE7 mouse line having a humanized Pcsk9 gene. […] This allows for studies to use renucleic acids which can be directly translated to NHP or human. PCSK9 gene is a “safe harbor” for insertion of a gene therapy mini-gene. Previously, the SpCas9 gRNAs targeting hPCSK9 exon 7 was validated in vitro (plasmid transfection of cell line) with sgR1 yielded 32% indel formation (data not shown).

Strand notation (5' to 3'): a small letter for the sugar, then the base; units joined by * are phosphorothioate-linked, units joined directly phosphodiester-linked; [ ] holds rarer units or linkages, { } end groups; capitals alone tell only the bases. [PACE] = phosphonoacetate internucleotide linkage; m = 2'-O-methyl; r = 2'-OH (RNA)

B1: sgR1: SpCas9 gRNA targeting hPCSK9 exon 7, SEQ ID NO: 1 (nucleic acid)
guide: mG*mA*mC*rCrArArCrUrUrUrGrGrCrCrGrCrUrGrUrGrGrUrUrUrUrArGrAmGmCmUmAmGmAmAmAmUmAmGmCrArArGrUrUrArArArArUrArArGrGrCrUrArGrUrCrCrGrUrUrArUrCrAmAmCmUmUmGmAmAmAmAmAmGmUmGmGmCmAmCmCmGmAmGmUmCmGmGmUmGmCmU[PACE]mU[PACE]mU[PACE]mU
B1 displayed an indel formation of 32%.
